Laboratory results taken from article PMC9118924.

Target: arrestin-3 fused to nanoluciferase (UniProt P32121)
Test: arrestin-3 interaction assay (hGPR84-eYFP with arrestin-3-nanoluciferase), 2-HTP concentration-response
Conditions: value read at the highest 2-HTP concentration, Log [2-HTP] M = -4; parent: est. 100; read off a plot

Row | Substance | percent of parent
1 | FLAG-human GPR84-eYFP (from UniProt Q9NQS5) pmIL3-Ct (all 21 serines/threonines of the third intracellular loop and the two serines of the C-terminal tail converted to alanine; positions not printed legibly) | 28 % of WT
2 | FLAG-human GPR84-eYFP (from UniProt Q9NQS5) pmCt (the two serine residues of the C-terminal tail converted to alanine; positions not printed legibly) | 75 % of WT
3 | FLAG-human GPR84-eYFP (from UniProt Q9NQS5) pmIL3 (all 21 serine and threonine residues of the third intracellular loop converted to alanine; positions not printed legibly) | 28 % of WT
